Paper doi:10.1101/2022.06.15.496229

Legend:
[1] = target: DHR2 domain of human DOCK10 (DOCK10^DHR2, residues 1695-2151) (human) (UniProt Q96BY6); test: SEC-MALS
[2] = target: DHR2 domain of human DOCK10 (DOCK10^DHR2, residues 1695-2151) (human) (UniProt Q96BY6); test: ITC

Chain of DHR2 domain of human DOCK10 (DOCK10^DHR2, residues 1695-2151) (human) (Q96BY6 1695-2151): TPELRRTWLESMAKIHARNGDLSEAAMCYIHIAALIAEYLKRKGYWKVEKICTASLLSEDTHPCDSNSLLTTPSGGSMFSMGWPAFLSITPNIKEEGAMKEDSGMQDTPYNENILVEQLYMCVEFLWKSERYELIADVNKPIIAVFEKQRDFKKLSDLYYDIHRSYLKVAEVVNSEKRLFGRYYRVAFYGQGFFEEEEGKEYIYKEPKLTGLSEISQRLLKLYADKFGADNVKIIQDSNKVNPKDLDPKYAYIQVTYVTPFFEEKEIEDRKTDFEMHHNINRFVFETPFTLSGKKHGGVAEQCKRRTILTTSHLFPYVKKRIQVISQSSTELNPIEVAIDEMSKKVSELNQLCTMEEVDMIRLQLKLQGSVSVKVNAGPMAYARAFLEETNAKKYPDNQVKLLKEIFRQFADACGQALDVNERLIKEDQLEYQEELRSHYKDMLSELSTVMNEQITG

Row | stoichiometry N (DOCK10^DHR2 per RAC1) [1] | dH [2] [kJ/mol] | Substance
1 | 2 |  | RAC1 (residues 1-192) (from UniProt P63000 1-192) (natural protein)
2 |  | -8.59 | RAC3 (residues 1-192) (from UniProt P60763 1-192) (natural protein)
